Experimental data taken from PMC2171506.

Target: CYK-4/MgcRacGAP (UniProt Q9H0H5)
Assay: myc IP, anti-CYK-4 Western blot
Details: reference: E6 wild type; sites T342

Sequence of UniProt Q9H0H5 (Q9H0H5 whole entry, looked up): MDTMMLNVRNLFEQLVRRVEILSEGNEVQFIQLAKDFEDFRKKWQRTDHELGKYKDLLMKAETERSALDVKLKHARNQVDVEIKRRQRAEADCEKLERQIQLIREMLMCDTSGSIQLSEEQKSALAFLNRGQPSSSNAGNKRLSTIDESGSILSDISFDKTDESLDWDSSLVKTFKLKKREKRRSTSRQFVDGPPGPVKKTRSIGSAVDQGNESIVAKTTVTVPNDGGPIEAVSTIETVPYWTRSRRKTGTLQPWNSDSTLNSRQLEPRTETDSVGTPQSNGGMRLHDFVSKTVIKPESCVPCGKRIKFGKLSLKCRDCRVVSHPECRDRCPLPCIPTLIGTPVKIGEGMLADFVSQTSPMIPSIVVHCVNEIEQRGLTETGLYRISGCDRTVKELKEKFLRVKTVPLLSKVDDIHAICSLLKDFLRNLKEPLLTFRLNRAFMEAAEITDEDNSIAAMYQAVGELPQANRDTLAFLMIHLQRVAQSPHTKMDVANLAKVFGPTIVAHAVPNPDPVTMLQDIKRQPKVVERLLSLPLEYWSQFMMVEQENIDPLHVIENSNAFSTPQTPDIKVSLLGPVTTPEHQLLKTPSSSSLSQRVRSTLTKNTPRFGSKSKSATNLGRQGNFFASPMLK

binding against the reference: stronger
Substance: ECT2 E6, 1-352 (from UniProt Q9H8V3-4) E6* (T342A)
